Measurements reported in patent US20240116985A1 (published 2024).
Starred links: 1 amine or outer side, 2 acyl side, 3 side chain; linkers in the order of their positions; H or OH if unused. Positions of bridges follow the written chain, without caps; N, C: chain ends. Non-standard residues stand in square brackets, D forms with d. Primed or numbered codes have the meaning given here. B5(16) = 2-amino-2-(pent-4-en-1-yl)hept-6-enoic acid = 2,2-bis(4-pentenyl)glycine (stitching residue), C=CCCCC(CCCC=C)(N[*:1])C(=O)[*:2]; B5(4) = 2,2-bis(4-pentenyl)glycine = 2-amino-2-(pent-4-en-1-yl)hept-6-enoic acid (stitching residue), C=CCCCC(CCCC=C)(N[*:1])C(=O)[*:2]; B5(9) = 2-amino-2-(pent-4-en-1-yl)hept-6-enoic acid (2,2-bis(4-pentenyl)glycine), C=CCCCC(CCCC=C)(N[*:1])C(=O)[*:2]; B5(19) = 2-amino-2-(pent-4-en-1-yl)hept-6-enoic acid (bis(4-pentenyl)glycine), C=CCCCC(CCCC=C)(N[*:1])C(=O)[*:2]; d(βAsp) = O=C(O)[C@@H](CC(=O)[*:2])N[*:1]; Ala(2-furyl) = N[C@@H](Cc1ccco1)C(=O)O; Bta = N[C@@H](Cc1csc2ccccc12)C(=O)O; αAllylPro = C=CC[C@@]1(C(=O)O)CCCN1; S8 = C=CCCCCCC[C@](C)(N)C(=O)O

B1: I-327 (peptide)
peptide: Ac-[αAllylPro]DA[B5(4)]DDAA[Ala(2-furyl)]V[S8]FWQ-NH2
modifications: staple 1-4, 4-11; not fully specified; printed as Ac-PL3-Asp-Ala-B5-Asp-Asp-Ala-Ala-2FurA-Val-S8-Phe-Trp-Gln-NH2
notes: Ac-PL3-Asp-Ala-B5-Asp-Asp-Ala-Ala-2FurA-Val-S8-Phe-Trp-Gln-NH2; stapled peptide composition
B2: I-328 (peptide)
peptide: Ac-[αAllylPro]DA[B5(4)]DDAA[Ala(2-furyl)]V[S8]FWQ-NH2
modifications: staple 1-4, 4-11; not fully specified; printed as Ac-PL3-Asp-Ala-B5-Asp-Asp-Ala-Ala-2FurA-Val-S8-Phe-Trp-Gln-NH2
notes: as for B1
B3: I-668 (peptide)
peptide: Ac-[αAllylPro][d(βAsp)]I[B5(9)]DEAAFQ[S8]F[Bta]Q-NH2
modifications: staple 1-4, 4-11
notes: Stapled peptide composition; earlier-eluting HPLC peak (staple isomer)
B4: I-647 (peptide)
peptide: Ac-[αAllylPro]DI[B5(9)]DELAFQ[S8]F[Bta]Q-NH2
modifications: staple 1-4, 4-11
notes: as for B3
B5: I-646 (peptide)
peptide: Ac-[αAllylPro]DI[B5(9)]DEAAFQ[S8]F[Bta]V-NH2
modifications: staple 1-4, 4-11
notes: Stapled peptide composition; later-eluting HPLC peak (staple isomer)
B6: I-650 (peptide)
peptide: Ac-[αAllylPro]DI[B5(16)]DEFAFQ[S8]F[Bta]Q-NH2
modifications: staple 1-4, 4-11
notes: as for B5
B7: I-652 (peptide)
peptide: Ac-[αAllylPro]DI[B5(16)]DESAFQ[S8]F[Bta]Q-NH2
modifications: staple 1-4, 4-11
notes: as for B5
B8: I-659 (peptide)
peptide: XDIXDEALFQXFXQ
modifications: not fully specified; As printed: Ac-PL3-Asp-Ile-B5-Asp-Glu-Ala-Leu-Phe-Gln-S8-Phe-BztA-Gln-NH2; N-terminal Ac; PL3 at 1, B5 at 4, S8 at 11 (stapled 1-4 and 4-11); BztA at 13; C-terminal NH2
notes: as for B5
B9: I-664 (peptide)
peptide: Ac-[αAllylPro]DI[B5(9)]DEAWFQ[S8]F[Bta]Q-NH2
modifications: staple 1-4, 4-11
notes: as for B3
B10: I-648 (peptide)
peptide: Ac-[αAllylPro]DI[B5(9)]DELAFQ[S8]F[Bta]Q-NH2
modifications: staple 1-4, 4-11
notes: as for B5
B11: I-660 (peptide)
peptide: Ac-[αAllylPro]DI[B5(19)]DEAFFQ[S8]F[Bta]Q-NH2
modifications: staple 1-4, 4-11
notes: Stapled peptide composition
B12: I-661 (peptide)
peptide: XDIXDEASFQXFXQ
modifications: not fully specified; As printed: Ac-PL3-Asp-Ile-B5-Asp-Glu-Ala-Ser-Phe-Gln-S8-Phe-BztA-Gln-NH2; N-terminal Ac; PL3 at 1, B5 at 4, S8 at 11 (stapled 1-4 and 4-11); BztA at 13; C-terminal NH2
notes: as for B3
B13: I-651 (peptide)
peptide: Ac-[αAllylPro]DI[B5(16)]DESAFQ[S8]F[Bta]Q-NH2
modifications: staple 1-4, 4-11
notes: as for B3
B14: I-649 (peptide)
peptide: Ac-[αAllylPro]DI[B5(9)]DEFAFQ[S8]F[Bta]Q-NH2
modifications: staple 1-4, 4-11
notes: as for B3
B15: I-663 (peptide)
peptide: Ac-[αAllylPro]DI[B5(19)]DEAQFQ[S8]F[Bta]Q-NH2
modifications: staple 1-4, 4-11
notes: Stapled peptide composition
B16: I-662 (peptide)
peptide: XDIXDEASFQXFXQ
modifications: not fully specified; As printed: Ac-PL3-Asp-Ile-B5-Asp-Glu-Ala-Ser-Phe-Gln-S8-Phe-BztA-Gln-NH2; N-terminal Ac; PL3 at 1, B5 at 4, S8 at 11 (stapled 1-4 and 4-11); BztA at 13; C-terminal NH2
notes: as for B5
B17: I-645 (peptide)
peptide: Ac-[αAllylPro]DI[B5(9)]DEAAFQ[S8]F[Bta]V-NH2
modifications: staple 1-4, 4-11
notes: Stapled peptide composition
B18: I-658 (peptide)
peptide: XDIXDEALFQXFXQ
modifications: not fully specified; As printed: Ac-PL3-Asp-Ile-B5-Asp-Glu-Ala-Leu-Phe-Gln-S8-Phe-BztA-Gln-NH2; N-terminal Ac; PL3 at 1, B5 at 4, S8 at 11 (stapled 1-4 and 4-11); BztA at 13; C-terminal NH2
notes: as for B3
B19: I-655 (peptide)
peptide: Ac-[αAllylPro]DI[B5(16)]DEWAFQ[S8]F[Bta]Q-NH2
modifications: staple 1-4, 4-11
notes: Stapled peptide composition

Target: T1, full-length beta-Catenin (Uniprot ID P35222) (Homo sapiens (Human), UniProt P35222 1-781)
T1 construct: the AlphaScreen used a Histidine (Nickel Chelate) detection kit, so a His tag is likely but not described; also called B-Catenin; bCat
T1 sequence: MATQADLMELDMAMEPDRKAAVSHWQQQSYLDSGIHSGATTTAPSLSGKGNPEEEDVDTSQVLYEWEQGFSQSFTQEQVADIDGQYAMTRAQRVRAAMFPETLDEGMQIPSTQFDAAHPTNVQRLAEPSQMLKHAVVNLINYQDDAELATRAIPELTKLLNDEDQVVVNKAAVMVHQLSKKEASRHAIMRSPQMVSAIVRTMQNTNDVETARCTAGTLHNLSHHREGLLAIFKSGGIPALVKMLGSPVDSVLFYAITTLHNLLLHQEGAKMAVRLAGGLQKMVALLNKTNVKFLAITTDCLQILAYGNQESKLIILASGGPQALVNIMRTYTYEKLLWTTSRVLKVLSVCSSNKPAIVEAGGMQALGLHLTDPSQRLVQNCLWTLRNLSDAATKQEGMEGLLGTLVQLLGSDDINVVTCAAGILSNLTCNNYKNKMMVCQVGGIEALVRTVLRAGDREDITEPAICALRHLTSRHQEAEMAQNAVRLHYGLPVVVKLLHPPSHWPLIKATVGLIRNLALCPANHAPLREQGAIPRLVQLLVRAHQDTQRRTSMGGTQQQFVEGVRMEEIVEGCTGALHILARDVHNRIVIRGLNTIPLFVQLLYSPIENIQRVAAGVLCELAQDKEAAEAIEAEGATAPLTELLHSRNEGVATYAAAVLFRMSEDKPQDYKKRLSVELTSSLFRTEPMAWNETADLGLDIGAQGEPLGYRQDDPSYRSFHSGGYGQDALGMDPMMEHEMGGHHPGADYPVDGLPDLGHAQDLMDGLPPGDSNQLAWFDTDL
Experiment: FP competition vs 5FAM-TCF4(10-53) probe on full-length beta-catenin
Experimental: (§1) The plate was incubated protected from light for 60 minutes at 20° C. prior to read. Reads were performed on a CLARIOstar plate reader (BMG Labtech) in duplicate, and data were fitted to a 1:1 binding model with hill slope using an in-house script. All provided concentrations are final concentrations.

First: B1
Second: B2
The EC50 of the first is 2.5-fold higher: 4720 nM for the first, 1910 nM for the second. The second is the more potent here.

Target: T2, full-length beta-Catenin (Uniprot ID P35222) (Homo sapiens (Human), UniProt P35222 2-781)
T2 construct: 'mature' is the nearest allowed form; also called bCat; B-Catenin
T2 sequence: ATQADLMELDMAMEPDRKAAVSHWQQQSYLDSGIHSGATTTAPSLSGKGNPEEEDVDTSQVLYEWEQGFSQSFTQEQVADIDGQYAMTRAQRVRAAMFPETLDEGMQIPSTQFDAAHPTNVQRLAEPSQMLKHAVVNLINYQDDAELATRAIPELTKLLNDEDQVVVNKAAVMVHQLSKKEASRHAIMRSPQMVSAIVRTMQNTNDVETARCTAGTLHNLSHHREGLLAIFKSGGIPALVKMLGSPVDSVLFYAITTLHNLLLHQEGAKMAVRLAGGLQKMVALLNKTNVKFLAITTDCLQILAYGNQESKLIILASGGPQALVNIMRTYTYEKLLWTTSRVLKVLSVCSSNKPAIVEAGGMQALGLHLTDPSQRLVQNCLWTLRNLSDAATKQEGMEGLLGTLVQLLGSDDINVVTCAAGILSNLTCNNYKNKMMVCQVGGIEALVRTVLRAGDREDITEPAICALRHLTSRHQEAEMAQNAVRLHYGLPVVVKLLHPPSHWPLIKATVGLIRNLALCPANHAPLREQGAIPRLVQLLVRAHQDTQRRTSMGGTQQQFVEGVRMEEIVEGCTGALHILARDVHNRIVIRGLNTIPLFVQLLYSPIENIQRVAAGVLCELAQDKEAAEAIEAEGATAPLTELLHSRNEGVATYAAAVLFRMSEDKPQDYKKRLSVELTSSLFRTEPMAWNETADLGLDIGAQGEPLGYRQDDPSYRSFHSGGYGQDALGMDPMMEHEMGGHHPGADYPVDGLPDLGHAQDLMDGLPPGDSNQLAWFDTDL
Experiment: fluorescence polarization competition, full-length beta-catenin with 5FAM-TCF4(10-53) probe as competitor
Experimental: as §1

First: B3
Second: B4
The EC50 of the first is 1.5-fold higher: 675 nM for the first, 445 nM for the second. The second is the more potent here.

First: B5
Second: B6
The EC50 of the first is 3.4-fold higher: 461 nM for the first, 137 nM for the second. The second is the more potent here.

Going from B7 to B8, the EC50 rises from 72 nM to 430 nM (6-fold). The first is the more potent here.

Going from B9 to B10, the EC50 falls from 996 nM to 233 nM (4.3-fold).

First: B11
Second: B12
The EC50 of the first is 12-fold higher: 544 nM for the first, 45 nM for the second.

B13 and B14 are within 1.5-fold of each other in EC50: 186 nM for the first, 209 nM for the second.

First: B15
Second: B16
The EC50 of the first is 1.7-fold higher: 43 nM for the first, 26 nM for the second.

B17 and B18 are within 1.5-fold of each other in EC50: 395 nM for the first, 546 nM for the second.

B19 showed an EC50 of 183 nM.
